B1: PTPRD (parent)
chain: FICQATGDPRPKIVWNKKGKKVSN
B2: KRT13 (parent)
chain: TPGIDLTRVLAEMREQYEAMAERN

Variants of: B1
Test: protein stability index of a GFP-peptide fusion (GPS, HEK-293T) (PSI 1-6); higher = more stable
Details: c terminus: a fixed tail appended
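Note: lentivirally expressed fusions sorted by FACS into six bins by GFP to DsRed ratio, PSI derived from sequencing read proportions per bin multiplied by bin number.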

Protein stability index: each site, then its substitutions
F1: Y 2.26 | K 3.12 | L 2.15 | C 3.2 | H 3.71 | A 3.28 | P 3.76 | T 3.08 | G 4.53 | M 2.92 | N 3.89 | D 3.65 | V 2.75 | R 3.66 | E 3.2 | W 2.23 | I 2.35 | Q 3.42 | S 3.3
I2: P 3.89 | H 1.55 | G 4.1 | T 3.58 | Y 3.01 | S 3.75 | W 2.95 | E 4.52 | R 3.57 | K 3.47 | Q 2.83 | D 4.73 | V 2.34 | M 3.44 | N 4.27 | L 2.59 | A 2.67 | C 2.29 | F 3.85
Q4: L 2.17 | A 1.61 | N 2.03 | G 1.88 | S 1.58 | Y 1.37 | H 2.33 | R 1.56 | C 1.8 | V 2.08 | T 3.05 | W 2.95 | E 2.18 | F 2.25 | I 1.84 | M 1.29 | D 1.87 | K 2.42 | P 2.14
C3: Y 1.15 | I 2.38 | V 2.31 | T 1.98 | P 3.54 | Q 2.05 | M 1.75 | E 3.04 | W 1.97 | R 2.06 | H 2.56 | N 1.88 | S 1.92 | A 2.55 | K 2.57 | L 1.86 | G 2.2 | F 1.92 | D 2.85
A5: Y 2.25 | L 2.01 | S 1.83 | E 1.92 | Q 1.95 | K 3.03 | T 2.08 | W 2.35 | I 1.77 | G 2.07 | N 2.09 | F 2.19 | V 2.26 | R 2.24 | C 2.12 | M 2.02 | H 2.2 | D 2.39 | P 2.04
G7: F 2.69 | H 2.16 | I 2.01 | C 1.87 | M 1.9 | D 1.93 | E 2.81 | K 2.39 | A 2.15 | L 2.19
T6: Y 2.24 | V 1.91 | K 2.02 | H 1.68 | R 2 | C 2.81 | S 2.94 | A 1.92 | I 1.61 | G 2.18 | D 1.71 | M 1.65 | Q 2.17 | E 2.05 | P 1.96 | N 1.78 | F 1.68 | L 1.47

Variants of: B2
Test: as above
Details: c terminus: a fixed tail appended

Protein stability index, by site and new letter:
E15: H 3.45 | K 3.83 | T 3.43 | L 3.04 | V 2.24 | F 3.26 | S 3.61 | C 3.34 | Q 3.28 | R 3.11 | A 3.47
G3: Q 3.23 | T 2.96 | C 2.63 | D 3.1 | K 1.99 | A 3.35 | M 2.38 | P 2.67 | W 3.37 | V 2.11
I4: R 4.14 | H 4.85 | Y 3.75 | S 4.48 | V 3.8 | T 3.31 | C 4.87 | P 4.39
E12: C 2.66 | A 3.15 | R 1.05 | Y 3.37 | T 4.09 | H 3.08 | F 3.42 | Q 4.76
M13: I 3.71 | V 3.3 | Y 4.11 | N 5.48 | A 4.67 | T 4.53 | C 4.23 | H 4.74
M20: K 4.81 | T 4.25 | L 3.74 | N 3.18 | A 4.74 | D 4.79 | Q 4.13 | C 4.1 | R 4.68 | V 3.09
T1: D 3.47 | W 3.5 | E 4.3 | Q 3.13 | V 2.67 | S 3.49 | H 4.28 | C 3.45 | I 4.36 | N 4.26
Q16: E 3.97 | L 2.94 | N 3.8 | C 4.57 | D 4.61 | S 3.17 | T 3.39 | K 4.78 | I 3.38 | P 4.08
A19: G 4.22 | D 4.08 | M 3.54 | H 3.71 | R 3.57 | S 4.53 | P 4.08 | C 3.99 | L 2.92
L10: D 5.17 | R 4.12 | E 5.2 | F 4.55 | K 4.14 | H 4.95 | Q 5.15 | M 4.48
R23: C 4.43 | L 3.34 | N 4.59 | W 2.83 | H 4.21 | Q 4.39 | T 4.08 | M 3.27 | D 4.84 | A 3.9
Y17: D 5.4 | R 4.75 | K 5.5 | G 6 | W 5.02 | N 4.56
D5: E 4.54 | G 1.58 | I 2.66 | N 3.88 | P 4.69 | Q 3.8 | W 1.72 | C 2.73
A21: D 4.91 | P 4.93 | L 4.39 | K 3.94 | M 4.09 | R 4.18 | S 4.65 | I 4.27
E22: W 2.86 | F 2.98 | D 4.66 | N 4.04 | I 2.79 | M 4.03 | S 3.52 | G 4.02 | T 3.87
R8: N 4.11 | D 2.73 | H 4.05 | Y 3.39 | F 3.13 | I 3.08
N24: K 3.27 | D 5.03 | E 4.51 | Y 3.8 | M 4.67 | Q 4.23 | T 4.22 | H 4.79 | L 4.83 | C 3.08
P2: S 3.9 | H 4.41 | Y 3.69 | F 2.79 | D 3.69 | A 4.17 | E 3.16 | V 2.6 | L 2.86 | M 2.97 | N 4.05 | I 2.54 | W 3.75 | T 3.81
L6: F 3.98 | D 3.84 | W 3.09 | N 5.14 | E 4.69 | S 5.29
T7: F 2.24 | R 2.8 | H 3.81 | L 2.17 | V 2.81 | S 3.07 | I 2.26
A11: M 2.79 | L 3.51 | P 4.65 | V 3.79 | N 3.77
V9: P 4.49 | N 4.86 | Y 3.01 | D 4.54 | R 4.56 | K 4.34 | L 2.25 | Q 4.41 | C 4.47 | H 4.47
R14: N 4.55 | K 3.69 | E 4.28 | V 3.14 | Y 3.61 | Q 4.46 | T 4.44
E18: F 2.84 | G 3.88 | D 4.27 | R 3.47 | P 2.72 | W 3.62 | I 3.98 | Q 3.13 | M 3.72 | K 3.84 | H 3.44 | C 2.93 | N 3.5
